# Assay results reported in the supplement of paper PMC7125110.
# ± gives the standard error. This sample holds only a part of the variants without activity.
# B1: glmS ribozyme (parent)
# chain: AUAAAAGCGCCAGAACUACAGAAAUGUAGUUGACGAGGAGGAGGUUUAUCGAAUUUUCGGCGGAUGCCUCCAAA
# Legend:
# Details in all cases: with glucosamine-6-phosphate
# glucosamine-6-phosphate [1] = variants of: B1; test: self-cleavage kobs at 40 uM GlcN6P; higher = faster cleavage; RNA array
# Summary of the method: (§1)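 Tracking of barcoded ribozyme variants used a hybridised Cy3 probe at 37 °C, after in situ transcription by E. coli RNA polymerase on sequenced MiSeq chips. The flowed solution held 40 μM to 10 mM glucosamine-6-phosphate in HEPES/KCl/Mg(OAc)2 buffer, and imaging ran over ~14 h. kobs was taken from exponential decay fits of normalised per-tile medians, and kcat and KM from weighted Michaelis–Menten fits.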
# glucosamine-6-phosphate [2] = variants of: B1; test: self-cleavage kobs at 160 uM GlcN6P; higher = faster cleavage; RNA array
# Summary of the method: as §1
# glucosamine-6-phosphate [3] = variants of: B1; test: self-cleavage kobs at 640 uM GlcN6P; higher = faster cleavage; RNA array
# Summary of the method: as §1
# glucosamine-6-phosphate [4] = variants of: B1; test: self-cleavage kobs at 2500 uM GlcN6P; higher = faster cleavage; RNA array
# Summary of the method: as §1
# glucosamine-6-phosphate [5] = variants of: B1; test: self-cleavage kobs at 10000 uM GlcN6P; higher = faster cleavage; RNA array
# Summary of the method: as §1
Variant,self-cleavage kobs at 40 uM GlcN6P (glucosamine-6-phosphate [1]),self-cleavage kobs at 160 uM GlcN6P (glucosamine-6-phosphate [2]),self-cleavage kobs at 640 uM GlcN6P (glucosamine-6-phosphate [3]),self-cleavage kobs at 2500 uM GlcN6P (glucosamine-6-phosphate [4]),self-cleavage kobs at 10000 uM GlcN6P (glucosamine-6-phosphate [5])
G35C G59U C61U,< 1e-05 s⁻¹,< 1e-05 s⁻¹,< 1e-05 s⁻¹,< 1e-05 s⁻¹,< 1e-05 s⁻¹
A36C A64C,< 1e-05 s⁻¹,–,< 1e-05 s⁻¹,< 1e-05 s⁻¹,< 1e-05 s⁻¹
A36C G62A,< 1e-05 s⁻¹,< 1e-05 s⁻¹,–,< 1e-05 s⁻¹,–
A36C G62C,< 1e-05 s⁻¹,< 1e-05 s⁻¹,–,–,< 1e-05 s⁻¹
A36C G51A,< 1e-05 s⁻¹,–,–,–,< 1e-05 s⁻¹
A36C U47C,< 1e-05 s⁻¹,–,< 1e-05 s⁻¹,< 1e-05 s⁻¹,–
G35U U46G,< 1e-05 s⁻¹,< 1e-05 s⁻¹,< 1e-05 s⁻¹,< 1e-05 s⁻¹,< 1e-05 s⁻¹
A36C A39G G60U,< 1e-05 s⁻¹,–,< 1e-05 s⁻¹,< 1e-05 s⁻¹,–
G35C G62A,< 1e-05 s⁻¹,< 1e-05 s⁻¹,< 1e-05 s⁻¹,< 1e-05 s⁻¹,< 1e-05 s⁻¹
A36G G62U,< 1e-05 s⁻¹,–,< 1e-05 s⁻¹,< 1e-05 s⁻¹,< 1e-05 s⁻¹
G35C A42U U45C G59U,< 1e-05 s⁻¹,–,–,–,–
A36C C50A G62C,< 1e-05 s⁻¹,–,–,–,–
G35U U54C U56G A64U C70U,< 1e-05 s⁻¹,–,–,–,< 1e-05 s⁻¹
G35C G43A,< 1e-05 s⁻¹,< 1e-05 s⁻¹,–,< 1e-05 s⁻¹,–
A36C U54C A64U C67G,< 1e-05 s⁻¹,–,–,–,–
A36G A64G U69G,< 1e-05 s⁻¹,–,–,–,–
G35U A42G,< 1e-05 s⁻¹,< 1e-05 s⁻¹,< 1e-05 s⁻¹,< 1e-05 s⁻¹,< 1e-05 s⁻¹
G35U A64C C68A,< 1e-05 s⁻¹,–,–,–,–
A36G C67U,< 1e-05 s⁻¹,–,–,–,–
G35C G38C C58A,< 1e-05 s⁻¹,< 1e-05 s⁻¹,–,< 1e-05 s⁻¹,–
G35C C61G C68G,7.74e-05 ± 3e-05 s⁻¹,–,–,–,–
G35A U47A U57C G66A,< 1e-05 s⁻¹,–,–,–,–
G35C C58A C71A,< 1e-05 s⁻¹,–,–,–,< 1e-05 s⁻¹
A36G C61A,< 1e-05 s⁻¹,–,< 1e-05 s⁻¹,–,< 1e-05 s⁻¹
A36G G59U,< 1e-05 s⁻¹,< 1e-05 s⁻¹,< 1e-05 s⁻¹,< 1e-05 s⁻¹,< 1e-05 s⁻¹
